From patent US20170247475A1 (Boehringer Ingelheim, published 2017)
Numbering of substitutions follows the chain as printed. Read-outs that look alike come from different tables or passages of the source.

Legend:
[1] = molecular target: T1, recombinant human VEGF165 (human, UniProt P15692-4 27-191); experiment: ProteOn, periplasmic extract 1/10 on hVEGF165 chip
T1 construct: also called hVEGF165; rhVEGF165
Text: One additional variant is constructed in which the potential oxidation site at position M30 (CDR1 region, see FIG. 19 indicated as bold italic residue) is removed by introduction of a M30I mutation.

[2] = molecular target: T1, recombinant human VEGF165; experiment: Biacore on VEGF165 (see Example 5.5)
Experimental: Samples are injected for 2 min and allowed to dissociate up to 20 min at a flow rate of 45 μI/min. In between sample injections, the chip surface is regenerated with 100 mM HCl. HBS-EP+(Hepes buffer pH7.4+EDTA) is used as running buffer. Binding curves are fitted using a Two State Reaction model by Biacore T100 Evaluation Software v2.0.1.
Affinity of VEGFBII032 is determined by Biacore (see Example 5.5) and the melting temperature is determined in the thermal shift assay as described above.

[3] = molecular target: T2, human VEGFR2-Fc chimera (human, UniProt P35968 20-764); experiment: binding ELISA on coated human VEGF121
T2 construct: bought (R&D Systems); also called hVEGFR2-Fc; VEGFR2-huFc
T2 sequence (P35968 20-764, change not shown): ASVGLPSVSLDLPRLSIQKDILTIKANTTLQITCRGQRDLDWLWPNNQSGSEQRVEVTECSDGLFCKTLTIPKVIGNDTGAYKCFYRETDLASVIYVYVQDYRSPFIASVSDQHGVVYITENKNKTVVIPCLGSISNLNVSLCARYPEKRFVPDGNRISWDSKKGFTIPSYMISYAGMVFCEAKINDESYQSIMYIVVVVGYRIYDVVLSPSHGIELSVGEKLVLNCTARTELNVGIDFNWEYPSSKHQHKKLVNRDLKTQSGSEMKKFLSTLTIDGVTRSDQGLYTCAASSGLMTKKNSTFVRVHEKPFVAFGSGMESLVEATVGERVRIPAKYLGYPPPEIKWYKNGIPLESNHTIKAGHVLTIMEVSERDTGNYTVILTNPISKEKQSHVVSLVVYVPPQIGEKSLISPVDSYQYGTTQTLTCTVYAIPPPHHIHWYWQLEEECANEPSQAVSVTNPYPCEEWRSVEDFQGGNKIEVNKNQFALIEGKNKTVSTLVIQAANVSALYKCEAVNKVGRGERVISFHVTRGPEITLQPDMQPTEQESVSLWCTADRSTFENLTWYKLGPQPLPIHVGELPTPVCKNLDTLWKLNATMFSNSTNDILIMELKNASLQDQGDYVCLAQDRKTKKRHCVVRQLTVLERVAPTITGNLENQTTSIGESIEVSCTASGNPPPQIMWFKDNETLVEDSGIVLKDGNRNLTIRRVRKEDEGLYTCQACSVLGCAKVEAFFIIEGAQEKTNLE
Experimental: Binding to recombinant human VEGF121 is assessed via a solid phase binding ELISA. Briefly, recombinant human VEGF121 (R&D Systems, Minneapolis, Minn., USA) is coated overnight at 4° C. at 1 μg/mL in a 96-well MaxiSorp plate (Nunc, Wiesbaden, Germany). Wells are blocked with a casein solution (1% in PBS).

[4] = molecular target: T3, mAng2; experiment: competition ELISA, blocking of mAng2 binding to mTie2
T3 construct: also called mouse Ang2
T3 chain: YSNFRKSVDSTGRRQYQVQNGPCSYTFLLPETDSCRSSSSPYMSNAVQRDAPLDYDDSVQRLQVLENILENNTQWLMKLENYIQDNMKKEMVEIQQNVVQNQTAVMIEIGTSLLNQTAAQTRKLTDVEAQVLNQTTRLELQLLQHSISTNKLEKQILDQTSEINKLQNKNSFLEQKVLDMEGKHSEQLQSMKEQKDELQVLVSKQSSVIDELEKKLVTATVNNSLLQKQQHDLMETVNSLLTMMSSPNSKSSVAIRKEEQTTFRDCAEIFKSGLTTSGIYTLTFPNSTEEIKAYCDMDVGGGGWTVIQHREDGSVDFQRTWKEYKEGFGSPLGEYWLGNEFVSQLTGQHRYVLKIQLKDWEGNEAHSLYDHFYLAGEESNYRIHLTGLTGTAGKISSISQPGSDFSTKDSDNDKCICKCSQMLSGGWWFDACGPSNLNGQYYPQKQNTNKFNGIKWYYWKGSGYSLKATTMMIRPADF

[5] = molecular target: T4, hAng2; experiment: competition ELISA, blocking of hAng2 binding to hTie2
T4 construct: also called human Ang2
T4 chain: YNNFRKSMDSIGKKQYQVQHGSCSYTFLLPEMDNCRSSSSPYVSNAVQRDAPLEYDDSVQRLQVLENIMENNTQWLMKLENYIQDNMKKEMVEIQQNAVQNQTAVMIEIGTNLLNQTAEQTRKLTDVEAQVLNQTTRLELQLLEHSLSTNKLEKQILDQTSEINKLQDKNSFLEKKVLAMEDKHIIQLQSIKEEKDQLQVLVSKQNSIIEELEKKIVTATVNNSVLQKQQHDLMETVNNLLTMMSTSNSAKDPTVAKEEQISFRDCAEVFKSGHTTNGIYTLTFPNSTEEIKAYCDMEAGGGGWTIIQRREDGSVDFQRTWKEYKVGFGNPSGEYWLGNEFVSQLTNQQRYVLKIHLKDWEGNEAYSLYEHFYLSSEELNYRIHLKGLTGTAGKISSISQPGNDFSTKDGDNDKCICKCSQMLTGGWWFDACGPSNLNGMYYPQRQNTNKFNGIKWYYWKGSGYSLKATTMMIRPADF

[6] = molecular target: T5, cAng2 (cynomolgus monkey); experiment: competition ELISA, blocking of cAng2 binding to cTie2
T5 construct: also called cyno Ang2

[7] = molecular target: T6, hAng2; experiment: competition ELISA hAng2/hTie2-Fc; blocked: hTie2-Fc
T6 construct: also called human Ang2
T6 chain: T4 chain
Experimental: The human assay is also performed after incubation of the VHH with 0.5 μM human serum albumin. Additionally, a hAng2 mediated HUVEC survival assay is performed (see Example 5.5; FIG. 29).

[8] = molecular target: T7, mAng2; experiment: competition ELISA, blocking of mAng2 binding to mTie2-Fc
T7 construct: may be the same protein as m22 (mouse Ang2-FLD); also called mouse Ang2
T7 chain: T3 chain

[9] = molecular target: T8, hAng2; experiment: cell-based or functional assay
T8 chain: T4 chain

[10] = molecular target: T8, hAng2; experiment: competition ELISA, blocking of hAng2 binding to hTie2-Fc
[11] = molecular target: T9, cAng2 (cynomolgus monkey); experiment: competition ELISA, blocking of cAng2 binding to cTie2-Fc
T9 construct: may be the same protein as m21 (cyno Ang2-FLD); also called cyno Ang2

[12] = molecular target: T10, mAng2; experiment: competition ELISA mAng2/mTie2-Fc; blocked: mTie2-Fc
T10 construct: also called mouse Ang2
T10 chain: T3 chain

[13] = molecular target: T11, cAng2 (cynomolgus monkey); experiment: competition ELISA cAng2/cTie2-Fc; blocked: cTie2-Fc
T11 construct: construct not given; also called cyno Ang2

[14] = molecular target: T10, mAng2; experiment: competition ELISA mAng2/mTie2-Fc; blocked: mTie2-Fc
[15] = molecular target: T11, cAng2; experiment: competition ELISA cAng2/cTie2-Fc; blocked: cTie2-Fc; remark: listed apart in the source
[16] = molecular target: T6, hAng2; experiment: competition ELISA hAng2/hTie2-Fc; blocked: hTie2-Fc
[17] = molecular target: T10, mAng2; experiment: competition ELISA mAng2/mTie2-Fc; blocked: mTie2-Fc
[18] = molecular target: T11, cAng2; experiment: competition ELISA cAng2/cTie2-Fc; blocked: cTie2-Fc; remark: listed apart in the source
[19] = molecular target: T5, cAng2; experiment: competition ELISA, blocking of cAng2 binding to cTie2; remark: listed apart in the source
[20] = molecular target: T4, hAng2; experiment: competition ELISA, blocking of hAng2 binding to hTie2
[21] = molecular target: T3, mAng2; experiment: competition ELISA, blocking of mAng2 binding to mTie2
[22] = molecular target: T8, hAng2; experiment: cell-based or functional assay
[23] = molecular target: T9, cAng2; experiment: competition ELISA, blocking of cAng2 binding to cTie2-Fc; remark: listed apart in the source
[24] = molecular target: T7, mAng2; experiment: competition ELISA, blocking of mAng2 binding to mTie2-Fc
[25] = molecular target: T8, hAng2; experiment: competition ELISA, blocking of hAng2 binding to hTie2-Fc

T1 sequence (P15692 other isoform, or with tags, fused parts or gaps limits assumed): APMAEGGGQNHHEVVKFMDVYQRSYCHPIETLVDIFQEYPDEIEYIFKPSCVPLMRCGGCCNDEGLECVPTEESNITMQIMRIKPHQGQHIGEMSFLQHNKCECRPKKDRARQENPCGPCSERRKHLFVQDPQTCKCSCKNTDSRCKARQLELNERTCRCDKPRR

B1: VEGFBII05B05 (VHH)
VHH: EVQLVESGGGLVQPGGSLRLSCVASGIRFMSMAWYRQAPGKHRELVARISSGGTTAYVDSVKGRFTISRDNSKNTVYLQMNSLKAEDTAVYYCNTFSSRPNPWGAGTQVTVSS
notes: also called VEGFBII5B05; VEGFBII5B05(wt)
- Binding level (RU) [1]: 242 RU
- koff [1]: 0.0615 s⁻¹
- Kd [2]: 32 nM

B2: VEGFBII032 (VHH)
VHH: B1 VHH with V23A, M30I, H42Q, V58A, K84R, A105Q, Q108L
notes: also called VEGFBII0032
- Kd [2]: 44 nM

B3: recombinant human VEGF121 (ligand, UniProt P15692-9 27-147, looked up)
chain: APMAEGGGQNHHEVVKFMDVYQRSYCHPIETLVDIFQEYPDEIEYIFKPSCVPLMRCGGCCNDEGLECVPTEESNITMQIMRIKPHQGQHIGEMSFLQHNKCECRPKKDRARQEKCDKPRR
notes: also called rhVEGF121; hVEGF121
- binding result [3]: binds

B4: ANGBII00001 (VHH)
bivalent VHH: EVQLVESGGGLVQAGGSLRLSCAASGFTFDDYALGWFRQAAGKEREGVSCIRCSDGSTYYADSVKGRFTISSDNAKNTVYLQMNSLKPEDTAVYYCAASIVPRSKLEPYEYDAWGQGTLVTVSSGGGGSGGGSEVQLVESGGGLVQAGGSLRLSCAASGFTFDDYALGWFRQAAGKEREGVSCIRCSDGSTYYADSVKGRFTISSDNAKNTVYLQMNSLKPEDTAVYYCAASIVPRSKLEPYEYDAWGQGTLVTVSS
notes: homodimeric anti-Ang2 VHH; also called 1D01-9gs-1D01
- IC50 (read off the curve) [4]: ~0.02 nM
- IC50 (read off the curve) [5]: ~0.01 nM
- IC50 (read off the curve) [6]: ~0.03 nM

B5: 7G08 (VHH)
VHH: EVQLVESGGGLVQPGGSLRLSCAASGFALDYYAIGWFRQVPGKEREGVSCISSSDGITYYVDSVKGRFTISRDNAKNTVYLQMNSLKPEDTAVYYCATDSGGYIDYDCMGLGYDYWGQGTQVTVSS
- IC50 (read off the curve) [7]: ~100 pM

B6: 00921 (VHH)
VHH: EVQLVESGGGLVQPGGSLRLSCAASGFTFDDYALGWFRQAPGKEREGVSCIRCSGGSTYYADSVKGRFTISSDNSKNTVYLQMNSLRPEDTAVYYCAASIVPRSKLEPYEYDAWGQGTLVTVSS
- IC50 (read off the curve) [8]: ~30 nM
- IC50 (read off the curve), hAng2 mediated HUVEC survival [9]: ~30 nM
- IC50 (read off the curve) [10]: ~20 nM
- IC50 (read off the curve) [11]: ~50 nM

B7: 1D01 (VHH)
VHH: B6 VHH with P14A, P41A, G55D, S75A, R87K, L119Q
- IC50 (read off the curve) [12]: ~10 nM
- IC50 (read off the curve) [13]: ~10 nM
- IC50 (read off the curve) [14]: ~10 nM
- IC50 (read off the curve) [15]: ~10 nM
- IC50 (read off the curve) [16]: ~8 nM
- IC50 (read off the curve) [17]: ~10 nM
- IC50 (read off the curve) [18]: ~10 nM

B8: 1D01 (VHH)
VHH: B6 VHH with P14A, P41A, G55D, S75A, R87K, L119Q
notes: also called 01D01
- IC50 (read off the curve) [4]: ~20 nM
- IC50 (read off the curve) [5]: ~10 nM
- IC50 (read off the curve) [6]: ~8 nM

B9: ANGBII00006 (VHH)
bivalent VHH: EVQLVESGGGLVQPGGSLRLSCAASGITLDDYAIGWFRQAPGKEREGVSSIRDNGGSTYYADSVKGRFTISSDNSKNTVYLQMNSLRPEDTAVYYCAAVPAGRLRYGEQWYPIYEYDAWGQGTLVTVSSGGGGSGGGSEVQLLESGGGLVQPGGSLRLSCAASGITLDDYAIGWFRQAPGKEREGVSSIRDNGGSTYYADSVKGRFTISSDNSKNTVYLQMNSLRPEDTAVYYCAAVPAGRLRYGEQWYPIYEYDAWGQGTLVTVSS
notes: homodimeric anti-Ang2 VHH; also called 00908-9gs-00908
- IC50 (read off the curve) [19]: ~30 pM
- IC50 (read off the curve) [20]: ~20 pM
- IC50 (read off the curve) [21]: ~30 pM

B10: 00938 (VHH)
VHH: EVQLVESGGGLVQPGGSLRLSCAVSGITLDDYAIGWFRQAPGKEREGVSAIRSSGGSTYYADSVKGRFTISSDNSKNTVYLQMNSLRPEDTAVYYCAAVPAGRLRYGEQWYPIYEYDAWGQGTLVTVSS
- IC50 (read off the curve), hAng2 mediated HUVEC survival [22]: ~5 nM
- IC50 (read off the curve) [23]: ~90 pM
- IC50 (read off the curve) [24]: ~50 pM
- IC50 (read off the curve) [25]: ~40 pM

B11: 00908 (VHH)
VHH: B10 VHH with V24A, A50S, S53D, S54N
notes: also called F009100908
- IC50 (read off the curve) [19]: ~80 pM
- IC50 (read off the curve) [20]: ~40 pM
- IC50 (read off the curve) [21]: ~100 pM
